What all share (assay): fluorescence polarisation; apparent KD; constant 1 μM TAMRA-labelled p14ARF (45–64) peptide titrated with HUWE1 protein; 25°C, 20 mM HEPES pH 8.0, 150 mM NaCl, 10% glycerol, 1 mM EDTA, 5 mM DTT; three independent experiments
Holding throughout (conditions): both partners purified
(In general: Fluorescence polarisation rises when a labelled molecule tumbles more slowly, as on binding a larger partner.)

One assay addresses T1, HUWE1 (3759–4374) (human, UniProt Q7Z6Z7 3759-4374).
T1 construct: also called extended C-terminal HUWE1 fragment; source: LOBSTR RIL cells, purified (IMAC, gel filtration)
T1 sequence (looked up): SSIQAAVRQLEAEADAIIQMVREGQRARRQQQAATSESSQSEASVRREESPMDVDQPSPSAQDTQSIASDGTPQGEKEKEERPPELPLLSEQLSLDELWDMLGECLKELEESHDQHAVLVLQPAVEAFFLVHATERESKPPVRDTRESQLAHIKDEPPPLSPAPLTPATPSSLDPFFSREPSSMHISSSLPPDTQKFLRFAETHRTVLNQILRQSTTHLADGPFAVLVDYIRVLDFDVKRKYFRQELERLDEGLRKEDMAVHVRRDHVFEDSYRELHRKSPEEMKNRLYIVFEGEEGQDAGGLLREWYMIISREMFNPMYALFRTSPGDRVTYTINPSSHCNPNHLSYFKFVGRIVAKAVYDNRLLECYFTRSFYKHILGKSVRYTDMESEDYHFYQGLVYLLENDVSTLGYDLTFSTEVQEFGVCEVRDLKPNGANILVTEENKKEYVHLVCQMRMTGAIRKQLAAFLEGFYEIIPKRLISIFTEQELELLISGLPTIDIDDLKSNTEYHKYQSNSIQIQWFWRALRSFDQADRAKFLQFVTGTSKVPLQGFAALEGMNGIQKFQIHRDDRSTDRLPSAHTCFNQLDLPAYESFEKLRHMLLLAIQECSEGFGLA

For assay [1], the target named is T2, HUWE1 (3951–4374), untagged (human, UniProt Q7Z6Z7 3951-4374).
T2 construct: Monomer MW 49.752 kDa (AUC methods); source: LOBSTR RIL cells, purified (IMAC, TEV protease cleavage, second IMAC, gel filtration); not shown: His6, N-terminal, cleaved
T2 sequence (looked up): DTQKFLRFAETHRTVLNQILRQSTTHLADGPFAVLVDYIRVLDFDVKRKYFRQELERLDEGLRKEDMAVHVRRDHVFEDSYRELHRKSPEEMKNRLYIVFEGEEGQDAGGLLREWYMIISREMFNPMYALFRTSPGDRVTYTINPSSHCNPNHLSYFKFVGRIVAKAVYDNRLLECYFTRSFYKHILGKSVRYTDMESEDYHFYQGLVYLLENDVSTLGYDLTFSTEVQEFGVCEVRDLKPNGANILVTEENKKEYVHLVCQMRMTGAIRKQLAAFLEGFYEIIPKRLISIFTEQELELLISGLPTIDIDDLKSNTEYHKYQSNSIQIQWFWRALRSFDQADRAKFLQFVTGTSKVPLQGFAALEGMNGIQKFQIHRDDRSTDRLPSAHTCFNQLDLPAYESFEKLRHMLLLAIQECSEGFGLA

The next assay deals with T3, HUWE1 (3843–4374) (human, UniProt Q7Z6Z7 3843-4374).
T3 construct: source: LOBSTR RIL cells, purified (IMAC, gel filtration)
T3 sequence (looked up): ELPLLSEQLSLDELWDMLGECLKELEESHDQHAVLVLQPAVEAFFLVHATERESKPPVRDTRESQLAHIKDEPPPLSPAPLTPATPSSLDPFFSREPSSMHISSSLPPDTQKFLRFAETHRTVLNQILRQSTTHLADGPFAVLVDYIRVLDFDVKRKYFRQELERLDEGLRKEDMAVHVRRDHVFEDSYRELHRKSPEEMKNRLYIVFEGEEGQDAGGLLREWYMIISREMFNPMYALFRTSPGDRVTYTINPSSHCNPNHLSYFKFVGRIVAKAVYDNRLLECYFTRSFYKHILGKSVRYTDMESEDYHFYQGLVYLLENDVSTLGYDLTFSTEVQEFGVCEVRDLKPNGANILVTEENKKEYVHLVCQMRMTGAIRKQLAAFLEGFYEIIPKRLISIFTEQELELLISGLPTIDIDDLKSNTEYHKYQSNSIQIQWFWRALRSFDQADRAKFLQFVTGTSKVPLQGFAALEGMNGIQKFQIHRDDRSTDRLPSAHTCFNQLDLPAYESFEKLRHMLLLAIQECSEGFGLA

The target of assay [2] is T4, HUWE1 (3993–4374), HECT domain (human, UniProt Q7Z6Z7 3993-4374).
T4 construct: also called isolated HECT domain; source: LOBSTR RIL cells, purified (IMAC, gel filtration)
T4 sequence (looked up): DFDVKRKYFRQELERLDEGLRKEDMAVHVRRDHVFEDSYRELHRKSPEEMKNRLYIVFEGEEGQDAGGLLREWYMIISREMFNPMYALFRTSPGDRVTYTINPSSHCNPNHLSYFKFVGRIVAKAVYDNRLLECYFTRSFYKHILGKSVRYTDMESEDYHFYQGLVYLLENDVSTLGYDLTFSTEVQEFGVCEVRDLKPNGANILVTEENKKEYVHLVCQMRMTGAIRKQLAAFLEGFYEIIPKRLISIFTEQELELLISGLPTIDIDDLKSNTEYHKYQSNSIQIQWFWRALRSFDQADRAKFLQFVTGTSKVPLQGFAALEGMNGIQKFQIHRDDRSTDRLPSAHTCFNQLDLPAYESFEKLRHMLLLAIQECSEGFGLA

Ends that are not written are not given here.

B1: fluorophor-labeled p14ARF-derived peptide (residues 45–64), TAMRA-labelled (peptide)
peptide: LVLMLLRSQRLGQQPLPRRPK(TAMRA)
notes: p14ARF (alternative reading frame product of CDKN2A), human, residues 45–64; additional lysine residue at the C-terminus that carries the TAMRA label (told in words); also called p14ARF-peptide; p14ARF (45-64); source: synthetic peptide, bought: Elim Biopharm
Consider B1, for which the Kd came to 7.7 ± 0.4 µM with HUWE1 (3759–4374), 280 ± 40 µM in assay [1], 5.2 ± 0.2 µM in the assay with HUWE1 (3843–4374) and 230 ± 40 µM in assay [2].

The values are drawn from PMC5308896, “A conformational switch regulates the ubiquitin ligase HUWE1” (eLife, 2017).
